Tests used:
GPNMB = target: T1, GPNMB (Homo sapiens, UniProt Q14956); assay: Epitope binning of anti-GPNMB antibodies (competitive binding)
T1 construct: V5His; made in house
T1 sequence (Q14956 23-492): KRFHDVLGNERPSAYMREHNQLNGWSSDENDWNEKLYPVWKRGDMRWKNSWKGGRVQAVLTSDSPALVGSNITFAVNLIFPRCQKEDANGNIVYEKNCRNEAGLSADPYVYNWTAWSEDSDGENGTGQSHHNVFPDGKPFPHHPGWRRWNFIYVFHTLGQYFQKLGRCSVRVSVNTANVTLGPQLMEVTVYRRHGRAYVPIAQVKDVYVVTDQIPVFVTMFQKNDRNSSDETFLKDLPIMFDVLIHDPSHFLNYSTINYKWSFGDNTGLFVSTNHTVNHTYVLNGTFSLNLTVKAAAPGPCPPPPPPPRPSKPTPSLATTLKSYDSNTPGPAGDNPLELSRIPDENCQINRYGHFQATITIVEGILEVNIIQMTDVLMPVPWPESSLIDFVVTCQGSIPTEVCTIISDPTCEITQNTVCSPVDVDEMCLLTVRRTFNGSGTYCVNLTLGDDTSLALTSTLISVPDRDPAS
Excerpt: Certain antibodies, described herein were binned in accordance with the protocol described in U.S. Patent Application Publication No. 20030157730. […] Competitive binding by antibodies from […] supports antibody specificity for similar or adjacent epitopes. Non competitive binding supports antibody specificity for unique epitopes.
Three bins were created to further test the binding of six anti-GPNMB antibodies. Bin 1 included GPNMB antibodies (1.2.1), (1.10.1), and (2.22.1). Bin 2 included GPNMB antibodies (2.3.1) and (1.15.1), and Bin 3 included GPNMB antibody (2.10.1). The results of the binning assays are provided below in Tables 4 and 5.

CG56972 expressing cells [1] = assay: Effect of naked mAb on CG56972 expressing cells in vitro; assay type: cell-based; conditions: naked IgG2 mAb
Excerpt: (§1) Fully human monoclonal antibodies (mAb)-IgG2 to CG56972/GPNMB, an antigen predominantly found on the surface of melanoma and brain tumor cells, were generated. […] Thus it was examined whether isotype switching from an IgG2 to an IgG1 might enable the mAb to kill human melanoma cells through ADCC effector functions.

CG56972 expressing cells [2] = assay: Effect of naked mAb on CG56972 expressing cells in vivo; conditions: naked IgG2 mAb
Excerpt: as §1

shed GPNMB = assay: Immunoprecipitation of shed GPNMB; assay type: binding, human

epitope bin (GPNMB; Table 4): VIII | binning assay signal (antibody pair matrix) (GPNMB; Table 4, paired with column BB): −19 | binning assay signal (antibody pair matrix) (GPNMB; Table 4, paired with column antibody 1.1): 91 | binning assay signal (antibody pair matrix) (GPNMB; Table 4, paired with column antibody 1.11): 10 | binning assay signal (antibody pair matrix) (GPNMB; Table 4, paired with column antibody 1.12): 15 | binning assay signal (antibody pair matrix) (GPNMB; Table 4, paired with column antibody 1.13): 13 | binning assay signal (antibody pair matrix) (GPNMB; Table 4, paired with column antibody 1.15): 0 | binning assay signal (antibody pair matrix) (GPNMB; Table 4, paired with column antibody 1.2): 79 | binning assay signal (antibody pair matrix) (GPNMB; Table 4, paired with column antibody 1.3): 71 | binning assay signal (antibody pair matrix) (GPNMB; Table 4, paired with column antibody 1.5): 15 | binning assay signal (antibody pair matrix) (GPNMB; Table 4, paired with column antibody 1.7): 21 | binning assay signal (antibody pair matrix) (GPNMB; Table 4, paired with column antibody 1.8): 8 | binning assay signal (antibody pair matrix) (GPNMB; Table 4, paired with column antibody 1.9): 12 | binning assay signal (antibody pair matrix) (GPNMB; Table 4, paired with column xV5): 89 | epitope bin (GPNMB; Table 5, Cut-off = 90): VIII | binning assay signal (antibody pair matrix) (GPNMB; Table 5, paired with column BB): 59 | binning assay signal (antibody pair matrix) (GPNMB; Table 5, paired with column antibody 1.1): 127 | binning assay signal (antibody pair matrix) (GPNMB; Table 5, paired with column antibody 1.11): 19 | binning assay signal (antibody pair matrix) (GPNMB; Table 5, paired with column antibody 1.12): 21 | binning assay signal (antibody pair matrix) (GPNMB; Table 5, paired with column antibody 1.13): 5 | binning assay signal (antibody pair matrix) (GPNMB; Table 5, paired with column antibody 1.15): 0 | binning assay signal (antibody pair matrix) (GPNMB; Table 5, paired with column antibody 1.2): 90 | binning assay signal (antibody pair matrix) (GPNMB; Table 5, paired with column antibody 1.3): 51 | binning assay signal (antibody pair matrix) (GPNMB; Table 5, paired with column antibody 1.5): −9 | binning assay signal (antibody pair matrix) (GPNMB; Table 5, paired with column antibody 1.7): 17 | binning assay signal (antibody pair matrix) (GPNMB; Table 5, paired with column antibody 1.8): 12 | binning assay signal (antibody pair matrix) (GPNMB; Table 5, paired with column antibody 1.9): 19 | binning assay signal (antibody pair matrix) (GPNMB; Table 5, paired with column xV5): 125 | epitope bin (GPNMB; six anti-GPNMB antibodies, three bins): Bin 2
Substance: CR011: fully human monoclonal antibody that specifically binds to GPNMB; VH SEQ ID NO: 20, VL SEQ ID NO: 29
effect on CG56972 expressing cells (CG56972 expressing cells [1]): no effect | effect on CG56972 expressing cells (CG56972 expressing cells [2]): no effect | recognition of shed GPNMB (shed GPNMB): recognize shed GPNMB

— US20140314780A1, “Compositions Using Antibodies Directed to GPNMB and Uses Thereof” (Celldex Therapeutics, Inc., priority 2008, published 2014)
